Bounds are passed on as bounds.

This experiment addresses insulin receptor on differentiated 3T3-L1 adipocytes (mouse (murine 3T3-L1 cell line)) (UniProt P15208). Kind of experiment: cell-based or functional assay.

Sequence of insulin receptor on differentiated 3T3-L1 adipocytes (mouse (murine 3T3-L1 cell line)) (P15208 28-1372): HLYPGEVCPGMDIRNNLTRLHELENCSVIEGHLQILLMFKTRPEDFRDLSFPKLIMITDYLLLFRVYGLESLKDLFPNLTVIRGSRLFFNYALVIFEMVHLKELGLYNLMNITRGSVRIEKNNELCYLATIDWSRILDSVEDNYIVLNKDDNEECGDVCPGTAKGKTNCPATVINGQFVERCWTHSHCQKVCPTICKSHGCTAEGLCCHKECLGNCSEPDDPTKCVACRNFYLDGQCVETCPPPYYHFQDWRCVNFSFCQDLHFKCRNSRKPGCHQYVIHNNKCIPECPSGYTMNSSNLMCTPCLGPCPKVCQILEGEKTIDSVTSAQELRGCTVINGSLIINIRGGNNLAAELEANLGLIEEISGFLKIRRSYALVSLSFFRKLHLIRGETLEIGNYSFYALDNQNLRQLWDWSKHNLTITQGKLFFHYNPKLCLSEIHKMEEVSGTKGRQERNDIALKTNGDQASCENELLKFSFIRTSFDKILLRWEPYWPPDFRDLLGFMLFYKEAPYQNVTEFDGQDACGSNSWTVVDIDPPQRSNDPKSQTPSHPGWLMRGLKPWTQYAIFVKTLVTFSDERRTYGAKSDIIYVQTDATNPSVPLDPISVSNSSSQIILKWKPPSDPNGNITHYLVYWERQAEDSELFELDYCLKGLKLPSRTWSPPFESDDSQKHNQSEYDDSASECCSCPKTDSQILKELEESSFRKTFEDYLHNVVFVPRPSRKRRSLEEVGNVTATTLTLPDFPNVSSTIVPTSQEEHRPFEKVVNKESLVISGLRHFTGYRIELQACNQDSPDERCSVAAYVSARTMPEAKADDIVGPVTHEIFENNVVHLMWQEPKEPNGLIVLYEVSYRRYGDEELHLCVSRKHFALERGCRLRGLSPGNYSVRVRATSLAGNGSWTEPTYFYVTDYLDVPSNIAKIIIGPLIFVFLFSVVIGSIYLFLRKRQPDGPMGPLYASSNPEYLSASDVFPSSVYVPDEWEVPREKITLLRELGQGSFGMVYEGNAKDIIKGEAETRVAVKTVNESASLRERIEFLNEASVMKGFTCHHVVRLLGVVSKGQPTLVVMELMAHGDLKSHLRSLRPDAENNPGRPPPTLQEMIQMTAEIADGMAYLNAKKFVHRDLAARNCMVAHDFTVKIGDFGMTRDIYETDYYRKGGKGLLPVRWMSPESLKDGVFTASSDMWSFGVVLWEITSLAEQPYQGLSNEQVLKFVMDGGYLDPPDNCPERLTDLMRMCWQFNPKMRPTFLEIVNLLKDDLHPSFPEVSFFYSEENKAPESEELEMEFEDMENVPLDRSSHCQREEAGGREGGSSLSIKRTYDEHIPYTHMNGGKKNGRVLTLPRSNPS

B1: SCI-57 without RGS-His tag (single-chain insulin analog secreted by L. lactis NZ9000(pNZPnisA:uspSCI-57)) (ligand)
chain: FVNQHLCGSDLVEALYLVCGERGFFYTDPTGGGPRRGIVEQCCHSICSLYQLENYCN
Regarding B1, the Insulin activity (no tag), p-Akt on 3T3-L1 adipocytes; culture: M17 only (nM commercial insulin (equivalent)) is less than 1; the Insulin activity (no tag), p-Akt on 3T3-L1 adipocytes; culture: M17 with 50 mM sodium phosphates (nM commercial insulin (equivalent)) was less than 1; the Insulin activity (no tag), p-Akt on 3T3-L1 adipocytes; culture: M17 with NaOH addition at 1.5 hr (nM commercial insulin (equivalent)) was greater than 1.

B2: RGS-His-tagged SCI-57 (single-chain insulin analog secreted by L. lactis NZ9000(pNZPnisA:uspSCI-57his), usp45 signal peptide cleaved) (ligand)
chain: FVNQHLCGSDLVEALYLVCGERGFFYTDPTGGGPRRGIVEQCCHSICSLYQLENYCNRGSHHHHHH
For the molecule B2, the Insulin activity (with RGS-His tag), p-Akt on 3T3-L1 adipocytes; culture: M17 with NaOH addition at 0.5 hr (nM commercial insulin (equivalent)) came to 1; the Insulin activity (with RGS-His tag), p-Akt on 3T3-L1 adipocytes; culture: M17 with NaOH addition at 1.5 hr (nM commercial insulin (equivalent)) is 1; the Insulin activity (with RGS-His tag), p-Akt on 3T3-L1 adipocytes; culture: M17 with NaOH addition at 2.5 hr (nM commercial insulin (equivalent)) is less than 1; the Insulin activity (with RGS-His tag), p-Akt on 3T3-L1 adipocytes; culture: M17 with NaOH addition every hour (nM commercial insulin (equivalent)) is 1. Where the note is “scale: nM commercial insulin”, this molecule gave a p-Akt(Ser473) Western blot on differentiated 3T3-L1 adipocytes, quantified from three independent experiments; supernatant of induced culture treated with NaOH of 1.

Values taken from US20140242111A1.
